Reference: patent publication US11242370B2, “Neuregulin-4 compounds and methods of use” (Eli Lilly and Company, priority 2019, dated 2022)
Numbering of substitutions follows the chain as printed. Names may count otherwise. Values belong to the molecule of their own block, whether it stands above or below them.

Target: T1, human HER2/HER3 (Homo sapiens, UniProt P21860)
T1 construct: expressed in transfected cells
Assay: Human HER2/HER3 phospho-ERK 1/2 assay, purified proteins, CHO-K1 cells
Type: cell-based
Settings: for EC50: purified proteins, phospho-ERK1/2
Procedure: A cell based assay utilizing CHO-K1 cells overexpressing human or rat HER receptors is used to determine activity of NRG4 compounds. CHO-K1 cells (ATCC) are grown in DMEM-F12 3:1 with 5% FBS with 20 mM HEPES, 40 μg/mL L-Proline, lx antibiotics and were split 1:5 every 2-3 days with TripLE Express (Gibco). Cells are transfected with plasmid DNA encoding HER receptors in pairs (hHER2-3, hHER2-4, rHER2-3 and rHER2-4) with Fugene 6 (Promega) according to the manufacturer's instructions. […] Transfected cells are selected with Puromycin (12 ug/ml) and Hygromycin (1 mg/ml) for 3-4 weeks and clonal lines are obtained by limited dilution cloning into 96 well plates. Clonal lines are selected by appropriate gene expression of HER2, HER3 or HER4 by Taqman method. Lines with appropriate receptor expression are confirmed by NRG1 induced phospho-ERK 1/2 responses. Clones are grown up, harvested, aliquoted into cryovials and then frozen under liquid nitrogen for long-term storage.
A phospho-ERK1/2 activity assay is utilized with CHO-K1 cells overexpressing human or rat HER receptors to determine potencies and selectivity of purified NRG4 compounds. CHO-K1 cell lines expressing the human or rat HER receptors are cultured with selection medium (DMEM-F12 3:1 with 5% FBS with 20 mM HEPES, 40 μg/mL L-Proline, 1× antibiotics, 12 μg/mL puromycin, 1 mg/mL Hygromycin B). On Day −1 (the day before phospho-ERK1/2 assay), cells are washed once with PBS, detached with enzyme free cell dissociation solution (GIBCO cat #13151-014), and resuspended in plating medium (DMEM-F12 3:1 with 20 mM HEPES, lx antibiotics, 0.2% FBS). Cells are plated in a 96-well Poly-D-Lysine coated plate (BD cat #354640) at 10,000 cells per 0.1 mL per well. Cells are cultured in a tissue culture incubator at 37° C. 5% CO2 overnight. On Day 1 (the day of pERK1/2 assay), plates are incubated at room temperature for 30 min. The culture media are removed followed by addition of 504, ligand at various concentrations diluted in PBS-20 mM HEPES-0.005% BSA. Native human NRG1 and NRG4 peptides are purchased from Reprokine (Tampa, Fla.). The stimulation time is 30 min (except for hHER2-4 1H6 line in which 15 min is used for stimulation). At the end of stimulation, ligands are removed and 704, Lysis buffer (made according to manufacturer's recipe, Perkin Elmer cat #ALSU-PERK-A10K) is added. Plates are incubated at room temperature for 10 min on plate shaker with 350 rpm agitation, then on ice for 1 hour without shaking. 304, of cell lysis is transferred to a 96-well white Optiplate (Perkin Elmer cat #6002290) for phospho-ERK1/2 assay. Briefly 7.5 μL acceptor beads are added to 30 μL lysis in Optiplate. The plate is covered with aluminum foil and incubated at room temperature for 1 hour on plate shaker with 350 rpm agitation. Then 7.5 μL donor beads are added and the plate is covered with aluminum foil and incubated at room temperature for 2 hours on plate shaker with 350 rpm agitation or at 4° C. for overnight (warm up plate at room temperature for 2 h before reading). Alpha signal data are obtained on an Envision instrument (Alpha Technology-compatible plate reader). Donor beads and acceptor beads are made according to assay protocol. The data shown are generated with either the AlphaScreen SureFire p-ERK1/2 (Thr202/Tyr204) assay kit (Cat #TGRES50k) or the AlphaLISA® SureFire® Ultra™ p-ERK 1/2 (Thr202/Tyr204) assay kit (Perkin Elmer cat #ALSU-PERK-A10K). The activity of the NRG1 peptide was similar in both types of assays. […]

EC50: 0.83 ± 0.2 nM
Molecule: WT NRG1: wild type human NRG1; native peptide purchased from Reprokine in Tables 7-9; comparator in the screening assays of Tables 4 and 6

EC50: > 1000 nM | phospho-ERK1/2 activity at the human HER3 HER2 receptors (statement in text on Table 9): no activity
Molecule: WT NRG4: wild type human NRG4 (SEQ ID NO:1); parental hFcNRG4 in screening (Tables 4-6), native peptide from Reprokine in Tables 7-9 (DHEEPCGPSHKSFCLNGGLCYVIPTIPSPFCRCVENYTGARCEEVFL; listed as Homo sapiens)

B1: Example 10: NRG4 D1G/V22Q/E44K, (GGGGS)3 linker, SEQ ID NO: 19, fused to IgG Fc dimer SEQ ID NO: 6 and 7 (protein)
chain 1: GGGGSGGGGSGGGGSGHEEPCGPSHKSFCLNGGLCYQIPTIPSPFCRCVENYTGARCEKVFL
chain 2: ECPPCPAPPVAGPSVFLFPPKPKDTLMISRTPEVTCVVVDVSHEDPEVQFNWYVDGVEVHNAKTKPREEQFNSTFRVVSVLTVVHQDWLNGKEYKCKVSNKGLPAPIEKTISKTKGQPREPQVYTLPPSREEMTKNQVSLWCLVKGFYPSDIAVEWESNGQPENNYKTTPPVLDSDGSFFLYSKLTVDKSRWQQGNVFSCSVMHEALHNHYTQKSLSLSPG
chain 3: B1 chain 2 with W141S, L143A, Y182V
EC50: > 1000 nM
